Test results: patent US20240409645A1 (DUALYX, published 2024)

Legend:
[1] = target: T1, human IL-2Rγ (common cytokine receptor γ-chain) (human, UniProt P31785 23-262, limits assumed); test: SPR off-rate ranking, periplasmic extract on immobilised protein
T1 construct: Recombinant protein coated on the plate or immobilised on a CM5 chip; also called hu IL-2R; CD132
T1 sequence: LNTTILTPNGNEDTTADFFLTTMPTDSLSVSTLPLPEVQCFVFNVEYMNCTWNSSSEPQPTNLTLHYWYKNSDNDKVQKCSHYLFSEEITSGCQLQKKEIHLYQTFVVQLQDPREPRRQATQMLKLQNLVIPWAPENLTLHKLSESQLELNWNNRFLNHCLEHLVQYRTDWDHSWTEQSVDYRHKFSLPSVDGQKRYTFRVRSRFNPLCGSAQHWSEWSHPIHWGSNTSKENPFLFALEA
Experimental: SPR was performed to determine dissociation rates using Biacore 3000 instrument (GE Healthcare). Briefly, human and mouse IL-2R proteins were immobilized on carboxylmethyl dextran sensor chip (CM5) at approximately 2500 RUs using amine coupling in acetate buffer (GE Healthcare). The VHH-containing P.E. were loaded with a flow rate of 30 uL/min and the off-rates were measured over a 120s period.

[2] = target: T1, human IL-2Rγ (common cytokine receptor …); test: PE binding ELISA, periplasmic extract on coated protein
Experimental: In a binding ELISA, human or mouse IL-2Rα, IL-2Rβ and IL-2Rγ proteins were coated directly on maxisorp microtiter plates overnight at 4° C. Free binding sites were blocked using 4% Marvel in PBS for 1 hour. Next, 1:5 dilution of P.E. in 1% Marvel/PBS were added to wells and incubated for 1 hour. […] Binding specificity was determined based on O.D. at 450 nm values compared to negative controls.

| Binder | koff [1] [s⁻¹] | OD (PE binding ELISA) [2] [OD450 nm] |
| --- | --- | --- |
| FJ1427_P035MP04D11 (VHH, VHH in periplasmic extract; also called clone nr) VHH: EVQLVESGGGLVQAGGSLRLSCAASGRTFGAVAVGWFRQVPGKEREFVAAINRSGSATKYADSVKGRFTISRDNAESPVFLQMNSLKPEDTAVYYCAADSLPYGRPYYFQTSAGEYDYWGQGTQVTVSS | 0.0401 | 1.41 |
| FJ1427_P035MP04A09 (VHH, VHH in periplasmic extract; also called clone nr) VHH: QVQLVESGGGLVQAGGSLRLSCAASGRTFGAVAVGWFRQVPGKEREFVAAINRNGSATKYADSAKGRFTISRDNAESPVYLQMNSLKPEDTAIYYCAADSLPYGRPYYFQTSAGEYDYWGQGTQVTVSS | 0.0576 | 1.23 |
| 32-MP04A08 (VHH, VHH in periplasmic extract; also called FJ1427_P035MP04A08; clone nr) VHH: QVQLVESGGGLVQAGGSLRLSCAASGRTFGSTAVGWFRQVPGKEREFVSAINRSGSATTYADSVKGRFTISRDNAKNTVYLQMNSLTPEDTGVYYCAADSLPYGRPYYFQRSAGEYDYWGQGTQVTVSS | 0.0616 | 0.407 |
| FJ1427_P035MP04F02 (VHH, VHH in periplasmic extract; also called clone nr) VHH: QLQLVESGGGLVQAGGSLTLSCAASGRTFSRDVVGWFRQAPGKEREFVASISRSGDGTFYTDSVKGRFTISSRDNAKNTVLLQMNSLKVEDTAVYYCAAGDGWSTYDYWGQGTQVTVSS | 0.0026 | 0.196 |
| 33-MP04C09 (VHH, VHH in periplasmic extract; also called FJ1427_P035MP04C09; clone nr) VHH: QLQLVESGGGLVQAGGSLRLSCAASGPTFSRVAVGWFRQAPGKEREFVAAVNRPATMTKYADSVKGRFTVSRDNAKNTVDLQMNSMKPEDTAVYYCAADSVPYGRPYYWQTSAGDYDYWGQGTQVTVSS | 0.031 | 1.69 |
| FJ1427_P035MP04A04 (VHH, VHH in periplasmic extract; also called clone nr) VHH: QVQLVESGGGLVQAGESLRLSCAASGPTASRVAVAWFRQVPGKEREFVAVVNRPGTMTKYADSVKGRFTISRDSAKNTVYLQMNSLKPEDTAVYYCAADSVPYGRPYYFQTSAGNYDYWGQGTQVTVSS | 0.0378 | 1.31 |
| FJ1427_P035MP04D08 (VHH, VHH in periplasmic extract; also called clone nr) VHH: QVQLVESGGGLVQAGESLRLSCAASGPTASRVAVAWFRQVPGKEREFVAVVNRPGTMTKYADSVKGRFTISRDSAKNTVYLQMNSLKPEDTAVYYCAADSVPYGRPYYFQTSAGNYDYWGQGTQVTVSS | 0.0195 | 0.579 |
| FJ1427_P035MP04H08 (VHH, VHH in periplasmic extract; also called clone nr) VHH: EVQLVESGGGLVQAGESLRLSCAASGPTASRVAVAWFRQVPGKEREFVAVVNRPGTMTKYADSVKGRFTISRDSAKNTVYLQMNSLKPEDTAVYYCAADSVPYGRPYYFQTSAGNYDYWGQGTQVTVSS | 0.048 | 1.3 |
| FJ1427_P035MP04B03 (VHH, VHH in periplasmic extract; also called clone nr) VHH: QVQLQESGGGLVQAGESLRLSCAASGPTASRVAVAWFRQVPGKEREFVAVVNRPGTMTKYADSVKGRFTISRDSAKNTVYLQMNSLKPEDTAVYYCAADSVPYGRPYYFQTSAGNYDYWGQGTQVTVSS | 0.0421 | 1.37 |
| FJ1427_P035MP04C11 (VHH, VHH in periplasmic extract; also called clone nr) VHH: QVQLVESGGGLVQHGGSLRLSCAASGPTFSRVAVGWFRQVPGKEREFVAVVNRPGSMTKYADSVKGRFNISRDTAKNTVYLQMNSLKPEDTAVYYCAADSVPYGRPYYFTTSAGDYDYWGQGTQVTVSS | 0.0693 | 0.912 |
| FJ1427_P035MP04G09 (VHH, VHH in periplasmic extract; also called clone nr) VHH: QVQLQESGGGLVQAGGSLRLSCAASGPTFSRVAVGWFRQVPGKEREFVAAVNRPATMTKYADSVKGRFTISRDNAKNTVDLQMNSMKPEDTAVYYCAADSVPYGRPYYFQTSAGEYDYWGQGTQVTVSS | 0.0658 | 0.559 |
| FJ1427_P035MP04E12 (VHH, VHH in periplasmic extract; also called clone nr) VHH: QLQLVESGGGWVQVGESLRLSCAPSGRTFASGIMGWFRQAPGKEREFVARIILNNNSTRYTDSVKGRFTISRDSAKNTMYLQMNTLRPEDTAVYYCAARDRYGSGNSLSPSAYDYWGQGTQVTVSS | 0.00688 | 1.33 |
| FJ1427_P035MP04H10 (VHH, VHH in periplasmic extract; also called clone nr) VHH: QVQLVESGGGLVQAGGSLRLSCAPSGRTFVSGIMGWFRQAPGKEREFVARIILNNNSTRYIDSVKGRFTISRDSAKNTMYLQMDSLRPEDTAVYYCAARDRYGSGNSLSPSAYDYWGQGTQVTVSS | 0.00998 | 1.8 |
| FJ1427_P035MP04F09 (VHH, VHH in periplasmic extract; also called clone nr) VHH: QVQLVESGGGWVQVGESLRLSCAPSGRTFVRGIMGWFRQAPGKEREFVARIILNNNSTRYTDSVKGRFTISRDSAKNTMWLQMDSLRPEDTAVYYCAARDRYGSGNSLSPSAYDYWGQGTQVTVSS | 0.00795 | 1.77 |
| FJ1427_P035MP04G08 (VHH, VHH in periplasmic extract; also called clone nr) VHH: QVQLVESGGGWVQVGESLRLSCAPSGRTFVSGIMGWFRQAPGKEREFVARIILNNNSTRYTDSVKGRFTISRDSAKNTMYLQMDSLRPEDTAVYYCAARDRYGSGNSLSPSAYDYWGQGTQVTVSS | 0.00892 | 1.84 |
| FJ1427_P035MP04H09 (VHH, VHH in periplasmic extract; also called clone nr; 360) VHH: EVQLVESGGGWVQVGESLRLSCAPSGRTFVSGIMGWFRQAPGKEREFVARIILNNNSTRYTDSVKGRFTISRDSAKNTMYLQMNTLRPEDTAVYYCAARDRYGSGNSLSPSAYDYWGQGTQVTVSS | 0.0222 | 1.87 |
| FJ1427_P035MP04G10 (VHH, VHH in periplasmic extract; also called clone nr; 367) VHH: QVQLVESGGGWVQVGESLRLSCAPSGRTFVSGIMGWFRQAPGKEREFVARIILNSNSTRYTDSAKGRFTISRDSAKNTMYLQMDSLRPEDTAVYYCAARDRYGSGNSLSPSAYDYWGQGTQVTVSS | 0.0104 | 0.839 |
| FJ1427_P035MP04G03 (VHH, VHH in periplasmic extract; also called clone nr) VHH: EVQLVESGGGWVQVGESLRLSCAPSGRTFVSGIMGWFRQAPGKEREFVARIILNNNSTRYTDSVKGRFTISRDSAKNTMYLQMDSLRPEDTAVYYCAARDRYGSGNSLSPSAYDYWGQGTQVTVSS | 0.00744 | 0.933 |
| FJ1427_P035MP04F11 (VHH, VHH in periplasmic extract; also called clone nr) VHH: QVQLVESGGGWVQVGESLRLSCAPSGRTFVSGIMGWFRQTPGKEREFVARIILNNNSTRYTDSVKGRFTISRDSAKNTLYLQMNTLRPEDTAVYYCAARDRYGSGNSLSPSAYDYWGQGTQVTVSS | 0.0111 | 2.01 |
| FJ1427_P035MP04G11 (VHH, VHH in periplasmic extract; also called clone nr) VHH: QVQLVESGGGWVQVGESLRLSCAPSGRTFVSGIMGWFRQAPGEEREFVARIILNNNSTRYTDSVKGRFTISRDSAKNTMYLQMNTLRPEDTAVYYCAARDRYGSGNSLSPSAYDYWGQGTQVTVSS | 0.0116 | 1.4 |
| FJ1427_P035MP04F10 (VHH, VHH in periplasmic extract; also called clone nr) VHH: QLQLVESGGGWVQVGESLRLSCVPSGRTFVSGIMGWFRQAPGKEREFVARIISNNNSTRYTDSVKGRFTISRDSAKNTMYLQMNTLRPEDTAVYYCAARDRYGSGNSLSPSAYDYWGQGTQVTVSS | 0.0147 | 0.751 |
| FJ1427_P035MP04H11 (VHH, VHH in periplasmic extract; also called clone nr) VHH: QVQLVESGGGWVQVGESPRLSCAPSGRTFVSGIMGWFRQTPGKEREFVARIILNNNSTRYTDSVKGRFTISRDSAKNTMYLQMNTLRPEDTAVYYCAARDRYGSGNSLSPSAYDYWGQGTQVTVSS | 0.0103 | 1.77 |
